Test results: paper PMC4384728 (The Journal of Cell Biology, 2015)

Assays:
HA-VEGFR3-TMD = target: T1, HA-VEGFR3-TMD; experiment: pull-down
T1 chain: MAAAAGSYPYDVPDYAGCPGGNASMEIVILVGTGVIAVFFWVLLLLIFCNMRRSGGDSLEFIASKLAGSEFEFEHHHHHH

HA-VEGFR2-TMD = target: T2, HA-VEGFR2-TMD; experiment: pull-down
T2 chain: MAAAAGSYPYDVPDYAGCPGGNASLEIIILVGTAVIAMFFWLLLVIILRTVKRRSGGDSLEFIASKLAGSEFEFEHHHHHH

B1: Flag-VE-TMD (domain or fragment)
chain: MAAAAGSDYKDDDDKGCPGGNASVSIQAVVAILLCILTITVITLLIFLRRRSGGLNDIFEAQKIEWHESSEFEFEHHHHHH
**Q.** Does B1 bind (HA-VEGFR3-TMD)?
**A.** binds

**Q.** Does B1 bind (HA-VEGFR2-TMD)?
**A.** binds
